Where no end group is shown, it is not given here.
Legend:
[1] = tested on: mAb ZTS-361; experiment: Peptide block of mAb ZTS-361 inhibition of IL-31 mediated STAT3 phosphorylation in feline FCWF-4 macrophages; assay type: cell-based; settings: for IC50, conjugated peptide: CRM197 conjugated, co-incubated 1 hour with 0.2 μM mAb ZTS-361, FCWF-4 cells
[2] = tested on: feline IL-31 15H05 mutant; experiment: Indirect ELISA, binding to feline IL-31 15H05 mutant; settings: compared with wildtype
Experimental: (§1) Mice and dogs were immunized with recombinant canine IL-31 (SEQ ID No. 155) for the purpose of identifying antibodies. Serum antibody titers from immunized animals were determined using an enzyme linked immunosorbent assay (ELISA). Canine or feline IL-31 (50 ng/well) was immobilized to polystyrene microplates and used as a capture antigen. Serum from immunized animals was diluted in phosphate buffered saline with 0.05% tween-20 (PBST). The presence of anti-IL-31 antibodies was detected with an appropriate secondary HRP labeled antibody. Following addition of a chromogenic substrate (SureBlue Reserve TMB 1-Component Microwell Peroxidase Substrate, KPL, Inc., Gaithersburg, Md.) and a ten minute incubation at room temperature (RT) the reaction was stopped with the addition of […] of 0.1 N HCl. The absorbance of each well was determined at an optical density (OD) of 450 nm. Antibodies were selected for their ability to bind canine and feline IL-31 using an ELISA. In some cases, further characterization was performed at the time of selection using an ELISA with a mutant form of the feline IL-31 protein as a capture antigen. Cells producing antibodies with desired binding and inhibitory properties were chosen for sequence analysis of RNA transcripts representing the variable heavy (VH) and variable light (VL) IgG chains.
(§2) For the indirect ELISA method, antibody binding to wildtype and feline IL-31 15H05 mutant proteins was assessed. […] In comparison, the 11E12 antibody bound to the wild-type feline IL-31 and its binding was not impacted by the mutations in the 15H05 epitope region as evidenced by the data in FIG. 4. To confirm binding, biacore analysis was performed using canine, feline, equine, human, feline 15H05 mutant, and feline 11E12 mutant IL-31 proteins as surfaces and a single test concentration of antibody. Similar to ELISA observations, all antibodies tested bound to wildtype feline IL-31. In agreement with the data described above in this section, mouse antibodies 11 E12 and 15H05 both bound to canine and feline IL-31 surfaces. […] From this group of nine fully canine antibodies, only ZIL1 and ZIL9 cross-reacted with equine IL-31. Of note, antibody 15H05 was the only one of all assayed herein that bound to canine, feline, and equine IL-31 indicating some level of epitope conservation across the three species. In contrast, none of the antibodies described herein bound to human IL-31. Additional biacore surfaces were used to verify ELISA observations showing differential binding of antibodies to wildtype feline IL-31 and two proteins with mutations in the 15H05 (15H05 mutant) or 11 E12 (11E12 mutant) epitopes. […] Differing results can be attributed to differences in the two assay methodologies.
(§3) To determine the impact of mAbs 11E12 and 15H05 ability to bind these mutant forms of feline IL-31, an indirect ELISA was run using the mutants directly coated on to an immunoassay plate. […] The minor attenuation of mAb 15H05s binding to the 11E12 mutant is likely due to translational effects of the mutations from movement of the two front helices effecting the 15H05 binding site. The mutations designed to affect mAb 15H05s binding (mutant 15H05) show a complete loss of mAb 1505s ability to bind this IL-31 mutant by ELISA. Unlike the 11E12 mutant, the changes in the random coil recognized by mAb 15H05 (mutant 15H05) had no impact on mAb 11E12 binding further supporting the distinction between the two epitopes (FIG. 6C).

[3] = tested on: wildtype feline IL-31; experiment: Indirect ELISA, binding to wildtype feline IL-31
Experimental: as §1, §2, §3

[4] = tested on: feline 11E12 mutant IL-31; experiment: Biacore binding, single test concentration of antibody, feline 11E12 mutant IL-31 surface
Experimental: (§4) For the indirect ELISA, binding (ELISA OD) to wildtype feline IL-31 and a feline IL-31 15H05 mutant which had mutations in the monoclonal antibody 15H05 epitope region was assessed. To confirm binding, biacore analysis was performed using canine, feline, equine, human, the feline 15H05 mutant, and feline 11E12 mutant IL-31 proteins as surfaces and a single test concentration of antibody. The feline IL-31 11E12 mutant had mutations in the monoclonal antibody 11E12 epitope region.
as §2

[5] = tested on: canine IL-31; experiment: Biacore binding, single test concentration of antibody, canine IL-31 surface
Experimental: as §4, §2

[6] = tested on: feline 15H05 mutant IL-31; experiment: Biacore binding, single test concentration of antibody, feline 15H05 mutant IL-31 surface
Experimental: as §4, §2

mAb ZTS-361, sequence (as listed by the source): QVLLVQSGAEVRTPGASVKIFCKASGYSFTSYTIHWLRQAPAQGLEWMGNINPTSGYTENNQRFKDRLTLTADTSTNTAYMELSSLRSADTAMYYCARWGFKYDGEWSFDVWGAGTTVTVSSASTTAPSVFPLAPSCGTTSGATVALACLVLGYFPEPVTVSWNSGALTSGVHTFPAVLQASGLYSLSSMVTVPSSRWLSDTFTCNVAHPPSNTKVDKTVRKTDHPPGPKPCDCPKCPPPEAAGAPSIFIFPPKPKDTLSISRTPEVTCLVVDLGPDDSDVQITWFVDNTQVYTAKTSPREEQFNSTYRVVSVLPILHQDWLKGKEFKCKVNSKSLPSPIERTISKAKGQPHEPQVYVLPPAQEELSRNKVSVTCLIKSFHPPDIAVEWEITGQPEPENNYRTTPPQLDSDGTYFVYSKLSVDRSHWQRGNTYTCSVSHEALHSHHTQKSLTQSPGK
mAb ZTS-361, sequence (as listed by the source): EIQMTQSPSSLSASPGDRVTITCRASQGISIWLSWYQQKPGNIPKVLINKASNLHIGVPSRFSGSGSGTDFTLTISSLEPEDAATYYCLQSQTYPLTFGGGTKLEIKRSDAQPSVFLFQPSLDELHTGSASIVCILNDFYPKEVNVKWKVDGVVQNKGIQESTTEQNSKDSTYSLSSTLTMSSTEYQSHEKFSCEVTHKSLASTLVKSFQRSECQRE
feline IL-31 15H05 mutant, sequence (as listed by the source, change not shown): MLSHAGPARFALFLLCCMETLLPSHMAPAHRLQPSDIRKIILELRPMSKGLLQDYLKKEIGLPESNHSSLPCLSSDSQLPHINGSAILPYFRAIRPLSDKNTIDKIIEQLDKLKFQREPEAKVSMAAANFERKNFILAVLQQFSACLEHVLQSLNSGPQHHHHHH
canine IL-31, sequence (as listed by the source): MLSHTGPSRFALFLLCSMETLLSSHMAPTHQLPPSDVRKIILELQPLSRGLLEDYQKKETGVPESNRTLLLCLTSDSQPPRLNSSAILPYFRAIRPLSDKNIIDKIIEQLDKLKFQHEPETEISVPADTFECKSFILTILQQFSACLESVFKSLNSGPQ
wildtype feline IL-31, sequence (as listed by the source): as the sequence (as listed by the source, change not shown) above, with A126P, A128D counted along it
feline 11E12 mutant IL-31, sequence (as listed by the source, stated change not applied): as the sequence (as listed by the source, change not shown) above, with D104A, I107A, A126P, A128D counted along it

Molecule | IC50, conjugated peptide [1] | decline of potency following conjugation ([1]; conjugated vs unconjugated) | binding to feline IL-31 15H05 mutant (ELISA) [2] | binding to wildtype feline IL-31 (ELISA) [3] | binding to feline 11E12 mutant IL-31 (Biacore) [4] | binding to canine IL-31 (Biacore) [5] | binding to feline 15H05 mutant IL-31 (Biacore) [6]
ZTS-564: constrained canine IL-31 15H05 mimotope, N-TEISVPADTFERKSFILT-C plus terminal Cysteines, mT2b linker | poor potency | – | – | – | – | – | –
constrained canine IL-31 15H05 mimotope, N-EISVPADTFERKSF-C plus N and C terminal Cysteines (CEISVPADTFERKSFC; cysteine pairing not given here; also: constrained, mode not given here) [ZTS-562] | 3.024 µg/mL | approximately 3 fold | – | – | – | – | –
constrained canine IL-31 15H05 mimotope, N-TEISVPADTFERKSFILT-C plus N and C terminal Cysteines, mT2a linker [ZTS-561] | poor potency | – | – | – | – | – | –
ZIL8: fully canine anti IL-31 antibody, VH SEQ ID NO: 79, VL SEQ ID NO: 81 (antibody, listed as Canis familiaris, V domains shown) VH: EVQLVESGGDLVKPAGSLRLSCVASGFTFSDYAMSWVRQAPGRGLQWVAGIDSVGSGTSYADAVKGRFTISRDDAKNTLYLQMFNLRAEDTAIYYCASGFPGSFEHWGQGTLVTVSS VL: QSVLTQPASVSGSLGQKVTISCTGSSSNIGSGYVGWYQQLPGTGPRTLIYYNSDRPSGVPDRFSGSRSGTTATLTISGLQAEDEADYYCSVYDRTFNAVFGGGT | – | – | binding was impacted | capable of binding | impacted | – | –
ZIL69: fully canine anti IL-31 antibody, VH SEQ ID NO: 91, VL SEQ ID NO: 93 (antibody, listed as Canis familiaris, V domains shown) VH: EVQLVESGGDLVKPAGSLRLSCVASGFTFSSYAMKWVRQAPGKGLQWVATINNDGTRTGYADAVRGRFTISKDNAKNTLYLQMDSLRADDTAVYYCTKGNAESGCTGDHCPPYWGQGTLVTVSS VL: SSVLTQPPSVSVSLGQTATISCSGESLNKYYAQWFQQKAGQAPVLVIYKDTERPSGIPDRFSGSSAGNTHTLTISGARAEDEADYYCESAVSSETNVFGSGTQLTVL | – | – | binding was impacted | capable of binding | – | partial canine binding | –
ZIL171: fully canine anti IL-31 antibody, VH SEQ ID NO: 107, VL SEQ ID NO: 109 (antibody, listed as Canis familiaris, V domains shown) VH: EVQLVESGGDLVKPAGSLRLSCVASGFTFRTYVMNWVRQAPGKGLQWVASINGGGSSPTYADAVRGRFTVSRDNAQNSLFLQMNSLRAEDTAIYFCVVSMVGPFDYWGHGTLVTVSS VL: SSVLTQPPSVSVSLGQTATISCSGKSLSYYYAQWFQQKAGQAPVLVIYKDTERPSGIPDRFSGSSSGNTHTLTISGARAEDEADYYCESAVSSDTIVFGGGTHLTVL | – | – | binding was impacted | capable of binding | – | – | partially affected
ZIL94: fully canine anti IL-31 antibody, VH SEQ ID NO: 95, VL SEQ ID NO: 97 (antibody, listed as Canis familiaris, V domains shown) VH: EVQLVDSGGDLVKPGGSLRLSCVASGFTFSTYFMSWVRQAPGRGLQWVALISSDGSGTYYADAVKGRFTISRDNAKNTLYLQMNSLRAEDTAMYYCAIFWRAFNDWGQGTLVTVSS VL: QTVVIQEPSLSVSPGGTVTLTCGLNSGSVSTSNYPGWYQQTRGRTPRTIIYDTGSRPSGVPNRFSGSISGNKAALTITGAQPEDEADYYCSLYTDSDILVFGGGTHLTVL | – | – | binding was impacted | capable of binding | – | dual binding property | –
ZIL159: fully canine anti IL-31 antibody, VH SEQ ID NO: 103, VL SEQ ID NO: 105 (antibody, listed as Canis familiaris, V domains shown) VH: EVQLVESGGDLVKPAGSLRLSCVASGFTFSSYVMTWVRQAPGKGLQWVAGINSEGSRTAYADAVKGRFTISRDNAKNTLYLQIDSLRAEDTAIYYCATGDIVATGTSYWGQGTLVTVSS VL: SNVLTQPPSVSVSLGQTATISCSGETLNRFYTQWFQQKAGQAPVLVIYKDTERPSGIPDRFSGSSSGNIHTLTISGARAEDEAAYYCKSAVSIDVGVFGGGTHLTVF | – | – | binding was impacted | capable of binding | impacted | dual binding property | –

— patent US11433139B2, “Peptide vaccines against interleukin-31” (Zoetis Services LLC, priority 2018, dated 2022)
